{"source": "patent US20050222029A1", "about": "(MYRIAD GENETICS, published 2005)", "binders": {"B1": {"name": "Survivin (BIRC5) 3-99 (other, human, UniProt O15392 3-99, looked up)", "chain": "APTLPPAWQPFLKDHRISTFKNWPFLEGCACTPERMAEAGFIHCPTENEPDLAQCFFCFKELEGWEPDDDPIEEHKKHSSGCAFLSVKKQFEELTLG", "notes": "range 3-99; bait (Gal4 DBD fusion); also called API4"}, "B2": {"name": "Hypothetical protein FLJ10540 1-231 (other, human, UniProt Q53EZ4 1-231, looked up)", "chain": "MSSRSTKDLIKSKWGSKPSNSKSETTLEKLKGEIAHLKTSVDEITSGKGKLTDKERHRLLEKIRVLEAEKEKNAYQLTEKDKEIQRLRDQLKARYSTTTLLEQLEETTREGERREQVLKALSEEKDVLKQQLSAATSRIAELESKTNTLRLSQTVAPNCFNSSINNIHEMEIQLKDALEKNQQWLVYDQQREVYVKGLLAKIFELEKKTETAAHSLPQQTKKPESEGYLQE", "notes": "prey (Gal4 AD-HA fusion)"}, "B3": {"name": "Hypothetical protein FLJ10540 1-117 (other, human, UniProt Q53EZ4 1-117, looked up)", "chain": "MSSRSTKDLIKSKWGSKPSNSKSETTLEKLKGEIAHLKTSVDEITSGKGKLTDKERHRLLEKIRVLEAEKEKNAYQLTEKDKEIQRLRDQLKARYSTTTLLEQLEETTREGERREQV", "notes": "prey (Gal4 AD-HA fusion)"}, "B4": {"name": "Hypothetical protein FLJ10540 1-115 (other, human, UniProt Q53EZ4 1-115, looked up)", "chain": "MSSRSTKDLIKSKWGSKPSNSKSETTLEKLKGEIAHLKTSVDEITSGKGKLTDKERHRLLEKIRVLEAEKEKNAYQLTEKDKEIQRLRDQLKARYSTTTLLEQLEETTREGERRE", "notes": "prey (Gal4 AD-HA fusion)"}, "B5": {"name": "Survivin (BIRC5) 89-143 (other, human, UniProt O15392 89-142, looked up)", "chain": "VKKQFEELTLGEFLKLDRERAKNKIAKETNNKKKEFEETAKKVRRAIEQLAAMD", "notes": "range 89-143; bait (Gal4 DBD fusion); also called API4"}, "B6": {"name": "VPS28 protein 10-221 (other, human, UniProt Q9UK41 10-221, looked up)", "chain": "GIGAPGNKPELYEEVKLYKNAREREKYDNMAELFAVVKTMQALEKAYIKDCVSPSEYTAACSRLLVQYKAAFRQVQGSEISSIDEFCRKFRLDCPLAMERIKEDRPITIKDDKGNLNRCIADVVSLFITVMDKLRLEIRAMDEIQPDLRELMETMHRMSHLPPDFEGRQTVSQWLQTLSGMSASDELDDSQVRQMLFDLESAYNAFNRFLHA", "notes": "prey (Gal4 AD-HA fusion); also called vacuolar protein sorting 28"}, "B7": {"name": "Tumor Suppressor (TSG101) 147-391 (other, human, UniProt Q99816 147-390, looked up)", "chain": "SASYPPYQATGPPNTSYMPGMPGGISPYPSGYPPNPSGYPGCPYPPGGPYPATTSSQYPSQPPVTTVGPSRDGTISEDTIRASLISAVSDKLRWRMKEEMDRAQAELNALKRTEEDLKKGHQKLEEMVTRLDQEVAEVDKNIELLKKKDEELSSALEKMENQSENNDIDEVIIPTAPLYKQILNLYAEENAIEDTIFYLGEALRRGVIDLDVFLKHVRLLSRKQFQLRALMQKARKTAGLSDLY", "notes": "bait (Gal4 DBD fusion)"}, "B8": {"name": "Actinin (ACTN1) 719-892 (other, human, UniProt P12814 719-892, looked up)", "chain": "QLLTTIARTINEVENQILTRDAKGISQEQMNEFRASFNHFDRDHSGTLGPEEFKACLISLGYDIGNDPQGEAEFARIMSIVDPNRLGVVTFQAFIDFMSRETADTDTADQVMASFKILAGDKNYITMDELRRELPPDQAEYCIARMAPYTGPDSVPGALDYMSFSTALYGESDL", "notes": "prey (Gal4 AD-HA fusion)"}, "B9": {"name": "Hypothetical protein FLJ10540 1-110 (other, human, UniProt Q53EZ4 1-110, looked up)", "chain": "MSSRSTKDLIKSKWGSKPSNSKSETTLEKLKGEIAHLKTSVDEITSGKGKLTDKERHRLLEKIRVLEAEKEKNAYQLTEKDKEIQRLRDQLKARYSTTTLLEQLEETTRE", "notes": "range 1-110; prey (Gal4 AD-HA fusion)"}, "B10": {"name": "Tumor Suppressor (TSG101) 140-270 (other, human, UniProt Q99816 140-270, looked up)", "chain": "PVFSRPISASYPPYQATGPPNTSYMPGMPGGISPYPSGYPPNPSGYPGCPYPPGGPYPATTSSQYPSQPPVTTVGPSRDGTISEDTIRASLISAVSDKLRWRMKEEMDRAQAELNALKRTEEDLKKGHQKL", "notes": "range 140-270; bait (Gal4 DBD fusion)"}, "B11": {"name": "Hypothetical protein FLJ10540 1-120 (other, human, UniProt Q53EZ4 1-120, looked up)", "chain": "MSSRSTKDLIKSKWGSKPSNSKSETTLEKLKGEIAHLKTSVDEITSGKGKLTDKERHRLLEKIRVLEAEKEKNAYQLTEKDKEIQRLRDQLKARYSTTTLLEQLEETTREGERREQVLKA", "notes": "range 1-120; prey (Gal4 AD-HA fusion)"}, "B12": {"name": "VPS28 protein 27-221 (other, human, UniProt Q9UK41 27-221, looked up)", "chain": "YKNAREREKYDNMAELFAVVKTMQALEKAYIKDCVSPSEYTAACSRLLVQYKAAFRQVQGSEISSIDEFCRKFRLDCPLAMERIKEDRPITIKDDKGNLNRCIADVVSLFITVMDKLRLEIRAMDEIQPDLRELMETMHRMSHLPPDFEGRQTVSQWLQTLSGMSASDELDDSQVRQMLFDLESAYNAFNRFLHA", "notes": "as for B6"}, "B13": {"name": "tetratricopeptide repeat domain 3 (TPRD) 1058-1189 (other, human, UniProt P53804 1058-1189, looked up)", "chain": "NRNSDSAGPFAVPDHLRQDVEEFEALYDQHSNEYVVRNKKLWDMNPKQKCSTLYDYFSQFLEEHGPLDMSNKMFSAEYEFFPEETRQILEKAGGLKPFLLGCPRFVVIDNCIALKKVASRLKKKRKKKNIKT", "notes": "prey (Gal4 AD-HA fusion)"}, "B14": {"name": "farnesyltransferase, CAAX box, alpha (FNTA) 189-328 (enzyme)", "chain": "not shown", "notes": "prey (Gal4 AD-HA fusion)"}, "B15": {"name": "Hypothetical protein FLJ10540 1-74 (other, human, UniProt Q53EZ4 1-74, looked up)", "chain": "MSSRSTKDLIKSKWGSKPSNSKSETTLEKLKGEIAHLKTSVDEITSGKGKLTDKERHRLLEKIRVLEAEKEKNA", "notes": "range 1-74; prey (Gal4 AD-HA fusion)"}, "B16": {"name": "Hypothetical protein FLJ10540 115-231 (other, human, UniProt Q53EZ4 115-231, looked up)", "chain": "EQVLKALSEEKDVLKQQLSAATSRIAELESKTNTLRLSQTVAPNCFNSSINNIHEMEIQLKDALEKNQQWLVYDQQREVYVKGLLAKIFELEKKTETAAHSLPQQTKKPESEGYLQE", "notes": "prey (Gal4 AD-HA fusion)"}}, "test_in_all_cases": "yeast two-hybrid", "key": {"[1]": {"target": "T1, DNA helicase II, ATP-dependent, 70 kD subunit (KU70) 131-403 (table prints 1131-4404) (human, UniProt P12956 131-403)", "T1 construct": "prey (Gal4 AD-HA fusion)", "T1 sequence (P12956 131-403 limits assumed)": "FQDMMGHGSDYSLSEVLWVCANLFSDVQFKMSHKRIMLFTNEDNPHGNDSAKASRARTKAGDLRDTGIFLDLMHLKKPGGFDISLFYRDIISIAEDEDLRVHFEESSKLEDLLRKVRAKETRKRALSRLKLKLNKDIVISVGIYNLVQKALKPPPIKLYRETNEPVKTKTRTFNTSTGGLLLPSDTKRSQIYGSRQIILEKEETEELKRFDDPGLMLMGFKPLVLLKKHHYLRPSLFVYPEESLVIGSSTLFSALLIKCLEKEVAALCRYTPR"}, "[2]": {"target": "T2, Tumor Suppressor (TSG101) 50-391 (human, UniProt Q99816 50-390)", "T2 construct": "range 50-391; bait (Gal4 DBD fusion)", "T2 sequence (looked up)": "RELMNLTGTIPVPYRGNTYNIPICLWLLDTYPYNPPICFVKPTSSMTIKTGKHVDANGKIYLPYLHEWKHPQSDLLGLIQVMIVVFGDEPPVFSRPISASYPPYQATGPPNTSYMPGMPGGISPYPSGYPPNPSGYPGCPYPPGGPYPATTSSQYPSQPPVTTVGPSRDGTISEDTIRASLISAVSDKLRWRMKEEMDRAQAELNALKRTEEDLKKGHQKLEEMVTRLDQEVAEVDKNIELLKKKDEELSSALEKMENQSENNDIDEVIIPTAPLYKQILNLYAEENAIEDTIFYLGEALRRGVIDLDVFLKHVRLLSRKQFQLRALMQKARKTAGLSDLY"}, "[3]": {"target": "B10"}, "[4]": {"target": "T3, Cytoplasmic dynein light chain 1 (HDLC1) 1-90 (human, UniProt P63167 1-89)", "T3 construct": "range 1-90; prey (Gal4 AD-HA fusion)", "T3 sequence (P63167 whole entry, the tested form may be a part)": "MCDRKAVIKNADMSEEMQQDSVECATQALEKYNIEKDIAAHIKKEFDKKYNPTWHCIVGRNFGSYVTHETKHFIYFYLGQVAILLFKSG"}, "[5]": {"target": "B7"}, "[6]": {"target": "T4, Golgi autoantigen (Golgin-84) 198-501 (human, UniProt Q8TBA6 198-501)", "T4 construct": "prey (Gal4 AD-HA fusion)", "T4 sequence (looked up)": "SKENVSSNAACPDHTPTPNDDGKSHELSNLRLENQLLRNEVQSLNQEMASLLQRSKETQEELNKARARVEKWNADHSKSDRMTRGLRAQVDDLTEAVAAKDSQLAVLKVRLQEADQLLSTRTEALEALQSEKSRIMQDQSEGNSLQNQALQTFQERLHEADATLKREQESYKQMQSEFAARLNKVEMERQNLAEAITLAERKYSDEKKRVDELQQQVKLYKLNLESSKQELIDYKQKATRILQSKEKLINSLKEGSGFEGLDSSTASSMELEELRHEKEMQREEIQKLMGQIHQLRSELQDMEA"}, "[7]": {"target": "T5, Tumor Suppressor (TSG101) 1-274 (human, UniProt Q99816 1-274)", "T5 construct": "range 1-274; bait (Gal4 DBD fusion)", "T5 sequence (looked up)": "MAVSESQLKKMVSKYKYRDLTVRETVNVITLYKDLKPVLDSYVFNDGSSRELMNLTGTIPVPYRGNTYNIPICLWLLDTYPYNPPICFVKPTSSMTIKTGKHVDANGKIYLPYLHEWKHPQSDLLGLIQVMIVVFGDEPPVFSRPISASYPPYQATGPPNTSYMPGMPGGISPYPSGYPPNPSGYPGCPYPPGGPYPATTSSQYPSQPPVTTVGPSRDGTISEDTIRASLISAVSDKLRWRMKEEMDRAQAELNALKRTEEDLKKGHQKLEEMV"}, "[8]": {"target": "T6, Hypothetical protein FLJ10540 2-132 (human, UniProt Q53EZ4 2-132)", "T6 construct": "prey (Gal4 AD-HA fusion)", "T6 sequence (looked up)": "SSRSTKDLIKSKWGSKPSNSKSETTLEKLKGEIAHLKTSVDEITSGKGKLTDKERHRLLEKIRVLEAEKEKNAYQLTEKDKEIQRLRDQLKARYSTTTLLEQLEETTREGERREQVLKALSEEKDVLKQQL"}, "[9]": {"target": "T7, Hypothetical protein FLJ10540 1-140 (human, UniProt Q53EZ4 1-140)", "T7 construct": "range 1-140; prey (Gal4 AD-HA fusion)", "T7 sequence (looked up)": "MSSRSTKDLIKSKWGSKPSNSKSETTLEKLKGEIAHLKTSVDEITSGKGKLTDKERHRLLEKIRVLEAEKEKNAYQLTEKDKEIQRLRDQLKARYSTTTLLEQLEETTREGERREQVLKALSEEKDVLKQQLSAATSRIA"}, "[10]": {"target": "T8, v-akt murine thymoma viral oncogene homolog 1 (AKT1) 1-150 (human, UniProt P31749 1-150)", "T8 construct": "range 1-150; bait (Gal4 DBD fusion)", "T8 sequence (P31749 1-150 limits assumed)": "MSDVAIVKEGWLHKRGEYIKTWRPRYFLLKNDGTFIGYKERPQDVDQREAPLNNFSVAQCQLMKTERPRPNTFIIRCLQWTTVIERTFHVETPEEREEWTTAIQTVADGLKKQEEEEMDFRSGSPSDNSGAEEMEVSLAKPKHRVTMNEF"}, "[11]": {"target": "T9, v-akt murine thymoma viral oncogene homolog 2 (AKT2) 1-152 (human, UniProt P31751 1-152)", "T9 construct": "bait (Gal4 DBD fusion)", "T9 sequence (looked up)": "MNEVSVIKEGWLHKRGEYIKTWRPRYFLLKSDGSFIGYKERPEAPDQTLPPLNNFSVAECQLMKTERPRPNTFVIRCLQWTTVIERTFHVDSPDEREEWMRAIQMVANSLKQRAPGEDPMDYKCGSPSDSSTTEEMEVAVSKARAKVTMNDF"}}}
{"binder": "B1", "values": [{"measurement": "binding result", "setting": "[1]", "value": "binds"}]}
{"binder": "B2", "values": [{"measurement": "binding result", "setting": "[2]", "value": "binds"}]}
{"binder": "B3", "values": [{"measurement": "binding result", "setting": "[2]", "value": "binds"}]}
{"binder": "B4", "values": [{"measurement": "binding result", "setting": "[3]", "value": "binds"}]}
{"binder": "B5", "values": [{"measurement": "binding result", "setting": "[4]", "value": "binds"}]}
{"binder": "B6", "values": [{"measurement": "binding result", "setting": "[5]", "value": "binds"}]}
{"binder": "B7", "values": [{"measurement": "binding result", "setting": "[6]", "value": "binds"}]}
{"binder": "B8", "values": [{"measurement": "binding result", "setting": "[7]", "value": "binds"}]}
{"binder": "B9", "values": [{"measurement": "binding result", "setting": "[2]", "value": "binds"}]}
{"binder": "B10", "values": [{"measurement": "binding result", "setting": "[8]", "value": "binds"}, {"measurement": "binding result", "setting": "[9]", "value": "binds"}]}
{"binder": "B11", "values": [{"measurement": "binding result", "setting": "[3]", "value": "binds"}]}
{"binder": "B12", "values": [{"measurement": "binding result", "setting": "[5]", "value": "binds"}]}
{"binder": "B13", "values": [{"measurement": "binding result", "setting": "[10]", "value": "binds"}, {"measurement": "binding result", "setting": "[11]", "value": "binds"}]}
{"binder": "B14", "values": [{"measurement": "binding result", "setting": "[10]", "value": "binds"}]}
{"binder": "B15", "values": [{"measurement": "binding result", "setting": "[3]", "value": "binds"}]}
{"binder": "B16", "values": [{"measurement": "binding result", "setting": "[2]", "value": "binds"}]}
